Source: patent US20150210761A1 (SAMSUNG ELECTRONICS, published 2015)
Substitutions are numbered along the chain they refer to. Each block holds one binder with its values, some of them ahead of it.

How the values were obtained:
[1] = biological target: T1, mouse Ang2 (Accession # NP-031452) (R&D Systems) (mouse, UniProt O35608 19-496); experiment: ELISA on coated mouse Ang2; 50% binding concentration, which the filing calls Kd
T1 construct: Bought protein coated on the ELISA plate; also called mAng2
T1 sequence (looked up): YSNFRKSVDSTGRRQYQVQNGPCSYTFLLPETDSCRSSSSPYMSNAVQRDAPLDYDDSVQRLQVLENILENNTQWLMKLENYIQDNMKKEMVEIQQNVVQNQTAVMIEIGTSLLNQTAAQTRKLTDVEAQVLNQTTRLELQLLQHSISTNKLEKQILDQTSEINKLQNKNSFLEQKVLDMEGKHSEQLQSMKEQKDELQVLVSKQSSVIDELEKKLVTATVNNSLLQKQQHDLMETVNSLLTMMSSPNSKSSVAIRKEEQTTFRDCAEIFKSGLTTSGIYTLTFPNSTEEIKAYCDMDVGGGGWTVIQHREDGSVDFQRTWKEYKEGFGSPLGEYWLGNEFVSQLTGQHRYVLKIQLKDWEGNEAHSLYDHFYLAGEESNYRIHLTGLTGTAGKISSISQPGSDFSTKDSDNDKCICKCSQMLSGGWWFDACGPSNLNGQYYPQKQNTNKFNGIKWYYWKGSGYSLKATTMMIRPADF
Procedure: An ELISA was conducted to measure the binding affinity of the antibodies prepared in Example 2 to mouse Ang2(mAng2). MaxiSorp™ flat-bottom plate (Nunc) of 96-well was coated with 5-20 μg/ml of mouse Ang2 (Mouse Ang2; Accession # NP_{—}031452) (R&D Systems). Thereafter, the plate was washed five times with 0.05% (v/v) Tween-20-containing PBS (PBST) and then blocked with 1% (v/v) BSA (bovine serum albumin; Sigma)-containing PBS at a room temperature for 2 hour. Each of the anti-Ang2 antibodies was added to each well of the plate at various concentrations, and the plate was allowed to react at a room temperature for 2 hours.
Thereafter, the plate was washed five times with PBST. Then, a HRP-conjugated anti-mouse IgG antibody (Santacruz) diluted in 1% (v/v) BSA-containing PBS at a ratio of 1:1,000 (v/v) was added in an amount of 50 μl to each well to react at a room temperature for 1 hour and then, the plate was washed five times with PBST. Lastly, 100 μl of TMB substrate (Cell Signaling) was added to each well of the plate to induce color development for 3 min. and then, the reaction was ceased by the addition of 100 μl of Stop solution (Cell Signaling) and OD450 values were measured on a plate reader (Molecular Devices).
From the obtained results, 50% binding concentration (Kd) of the anti-Ang2 antibody to Ang2 protein is obtained, thereby measuring the binding intensity of each of the anti-Ang2 antibodies to Ang2.

[2] = biological target: Ang2 RBD mutant A449 (human) (UniProt O15123); experiment: ELISA; antibody coated, FLAG-tagged RBD mutant, anti-FLAG-HRP detection
[3] = biological target: T1, mouse Ang2 (Accession # NP-031452) (R&D …); experiment: ELISA on coated mouse Ang2
[4] = biological target: T2, Ang2 RBD mutant F469 (human, UniProt O15123 276-496); experiment: ELISA; antibody coated, FLAG-tagged RBD mutant, anti-FLAG-HRP detection
T2 chain: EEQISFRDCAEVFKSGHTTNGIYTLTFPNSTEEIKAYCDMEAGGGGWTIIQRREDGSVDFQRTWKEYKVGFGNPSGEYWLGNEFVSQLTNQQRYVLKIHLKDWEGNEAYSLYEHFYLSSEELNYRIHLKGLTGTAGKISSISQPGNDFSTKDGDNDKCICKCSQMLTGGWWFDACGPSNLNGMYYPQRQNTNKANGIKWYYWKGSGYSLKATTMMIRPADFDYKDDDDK

[5] = biological target: T3, Ang2 RBD mutant P452 (human, UniProt O15123 276-496); experiment: as above
T3 chain: T2 chain with P177A, A194F

[6] = biological target: T4, Ang2 RBD mutant I434 (human, UniProt O15123 276-496); experiment: as above
T4 chain: T2 chain with I159A, A194F

[7] = biological target: T5, Ang2 RBD mutant N421 (human, UniProt O15123 276-496); experiment: as above
T5 chain: T2 chain with N146A, A194F

[8] = biological target: T6, Ang2 RBD mutant N467 (human, UniProt O15123 276-496); experiment: as above
T6 chain: T2 chain with N192A, A194F

Kd [1]: 141 nM
B1: SAIT-ANG2-AB-m8D3 (antibody, V domains shown)
VH: EVQLQQSGPELVKPGDSVKMSCKASGYTFTDYYMKWVRQSHGKSLQWVGEINPKNGDTFYNQIFKGKATLTVDKSSSTAYMQLTSLTSEDSAVYYCTRENDYDVGFFDYWGQGTSVTVSS
VL: TIVMTQTPKFLLVSAGDRITITCKASQSVSNDVAWYQQKPGQSPKLLIYYASNRYPGVPDRFTGSGYGTDFTFTISTVQAEDLAVYFCQQDYTSPWTFGGGTELEIK
notes: also called hybridoma KCLRF-BP-00308

Binding (%) (mutant Ang2 / native Ang2) [2]: 95.6% | binding result [3]: no binding | Binding (%) (mutant Ang2 / native Ang2) [4]: 77.9% | Binding (%) (mutant Ang2 / native Ang2) [5]: 105% | Binding (%) (mutant Ang2 / native Ang2) [6]: 93.2% | Binding (%) (mutant Ang2 / native Ang2) [7]: 89.3% | Binding (%) (mutant Ang2 / native Ang2) [8]: 79.4%
B2: SAIT-ANG2-AB-m1A10 (antibody, V domains shown)
VH: QVQLQQSGAELMKPGASVKISCKATDYTFSSYWLEWLIQRPGHGLEWIGEILPGSGSTNYNEKFRGKATFTEDTSSNTAYMQLSSLTSEDSAVYYCARGNHNSYYYAMDYWGQGTSVTVSS
VL: DIVLTQSPASLAVSLGQRATISCRASESVDSYGNSFMHWYQQKPGQPPKLLIYRASNLDSGIPARFSGSGSRTDFTLTINPVEADDVATYYCQQSNEDPLTFGAGTKLELK
notes: also called hybridoma KCLRF-BP-00306

Kd [1]: 130 nM
B3: SAIT-ANG2-AB-m3E2 (antibody, V domains shown)
VH: EVQLQQSGAELVKPGASVKLSCTASGFNIKDPYIHWVKQRPEQGLEWIGRIDPANGNTKYDPKFQGKATITADTSSNTAYLQLSSLTSEDTAVYYCVRRWDGGGFDYWGQGTSVTVSS
VL: DIQMTQTTSSLSASLGDRVTISCRASQDISNYLNWYQQKPDGTVKLLIYYTSRLHSGVPSRFSGSGSGTDYSLTITNLEQEDIATYFCQQGNTLPWTFGGGTKLEIK
notes: also called hybridoma KCLRF-BP-00305
